Test in all cases: SPR (Biacore), bound amount, IL6R-BF648/IL6R-L = 100
Background: Surface plasmon resonance follows binding to a sensor surface in real time, without labels.

The target of one assay is T1, FcγRIa (human, UniProt P12314 16-292, limits assumed).
T1 construct: also called FcgRIa; CD64

In the next assay the target is T2, FcγRIIa type H (human, UniProt P12318 36-217).
T2 construct: also called FcγRIIaH; FcγRIIH
T2 sequence: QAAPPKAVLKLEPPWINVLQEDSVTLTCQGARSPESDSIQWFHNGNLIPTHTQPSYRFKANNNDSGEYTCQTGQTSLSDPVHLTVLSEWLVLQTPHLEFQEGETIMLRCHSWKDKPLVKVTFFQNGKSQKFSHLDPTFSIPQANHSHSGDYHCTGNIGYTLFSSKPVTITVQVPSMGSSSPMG

The next assay addresses T3, FcγRIIb (human, UniProt P31994 43-217, limits assumed).
T3 construct: also called FcgRIIb; FcγIIB
T3 sequence: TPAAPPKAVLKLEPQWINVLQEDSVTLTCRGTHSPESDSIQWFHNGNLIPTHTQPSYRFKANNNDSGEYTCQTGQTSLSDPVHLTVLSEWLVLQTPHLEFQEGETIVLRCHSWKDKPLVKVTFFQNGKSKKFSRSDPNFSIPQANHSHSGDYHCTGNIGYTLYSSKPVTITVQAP

The target of another assay is T4, FcγRIIIa type V (human, UniProt P08637 17-208, limits assumed).
T4 construct: also called FcγRIIIaV; FcgRIIIaV
T4 sequence (P08637 other isoform, or with tags, fused parts or gaps limits assumed): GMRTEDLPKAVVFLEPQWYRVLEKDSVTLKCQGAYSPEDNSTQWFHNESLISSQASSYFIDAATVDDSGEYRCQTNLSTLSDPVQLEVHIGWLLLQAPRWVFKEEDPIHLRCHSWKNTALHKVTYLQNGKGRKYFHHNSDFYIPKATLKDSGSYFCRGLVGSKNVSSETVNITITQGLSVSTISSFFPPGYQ

T1 sequence (P12314 16-292 limits assumed): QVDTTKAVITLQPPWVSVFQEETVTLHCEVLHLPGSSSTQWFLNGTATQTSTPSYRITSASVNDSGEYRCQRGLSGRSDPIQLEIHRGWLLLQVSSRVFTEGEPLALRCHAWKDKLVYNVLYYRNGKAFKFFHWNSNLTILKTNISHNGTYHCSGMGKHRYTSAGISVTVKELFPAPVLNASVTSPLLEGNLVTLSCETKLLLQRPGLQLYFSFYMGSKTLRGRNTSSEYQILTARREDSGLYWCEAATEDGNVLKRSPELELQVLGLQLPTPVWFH

B1: IL6R-BP189/IL6R-L (antibody, human IgG1)
heavy: QVQLQESGPGLVKPSETLSLTCAVSGHSISHDHAWSWVRQPPGEGLEWIGFISYSGITNYNPSLQGRVTISRDNSKNTLYLQMNSLRAEDTAVYYCARSLARTTAMDYWGEGTLVTVSSASTKGPSVFPLAPSSKSTSGGTAALGCLVKDYFPEPVTVSWNSGALTSGVHTFPAVLQSSGLYSLSSVVTVPSSSLGTQTYICNVNHKPSNTKVDKKVEPKSCDKTHTCPPCPAPELLGDDSVFLFPPKPKDTLMISRTPEVTCVVVDVSDEDGEVKFNWYVDGVEVHNAKTKPREEQYNSTYRVVSVLTVLHQDWLNGKEYKCKVSNAALPKPIEKTISKAKGQPREPQVYTLPPSRDELTKNQVSLTCLVKGFYPSDIAVEWESNGQPENNYKTTPPVLDSDGSFFLYSKLTVDKSRWQQGNVFSCSVMHEALHNHYTQESLSLSP
light: DIQMTQSPSSLSASVGDRVTITCRASQDISSYLNWYQQKPGKAPKLLIYYTSRLHSGVPSRFSGSGSGTDFTFTISSLQPEDIATYYCQQGNTLPYTFGQGTKVEIK
notes: IgG1; Fc variant of IL6R-B3; copies: 2 + 2
For B1, the relative binding activity was 56 % of control with FcγRIa, 183 % of control with FcγRIIa type H, 177 % of control with FcγRIIb and 141 % of control with FcγRIIIa type V.

B2: IL6R-BP194/IL6R-L (antibody, human IgG1)
heavy: QVQLQESGPGLVKPSETLSLTCAVSGHSISHDHAWSWVRQPPGEGLEWIGFISYSGITNYNPSLQGRVTISRDNSKNTLYLQMNSLRAEDTAVYYCARSLARTTAMDYWGEGTLVTVSSASTKGPSVFPLAPSSKSTSGGTAALGCLVKDYFPEPVTVSWNSGALTSGVHTFPAVLQSSGLYSLSSVVTVPSSSLGTQTYICNVNHKPSNTKVDKKVEPKSCDKTHTCPPCPAPDYLGDDSVFLFPPKPKDTLMISRTPEVTCVVVDVSDEDGEVKFNWYVDGVEVHNAKTKPREEQYNSTYRVVSVLTVLHQDWLNGKEYKCKVSNAALPKPIEKTISKAKGQPREPQVYTLPPSRDELTKNQVSLTCLVKGFYPSDIAVEWESNGQPENNYKTTPPVLDSDGSFFLYSKLTVDKSRWQQGNVFSCSVMHEALHNHYTQESLSLSP
light: DIQMTQSPSSLSASVGDRVTITCRASQDISSYLNWYQQKPGKAPKLLIYYTSRLHSGVPSRFSGSGSGTDFTFTISSLQPEDIATYYCQQGNTLPYTFGQGTKVEIK
notes: as for B1
For the molecule B2, the relative binding activity in the assay with FcγRIa is 69 % of control; with FcγRIIa type H, 395 % of control; in the assay with FcγRIIb, 178 % of control; with FcγRIIIa type V, 249 % of control.

B3: IL6R-BP192/IL6R-L (antibody, human IgG1)
heavy: QVQLQESGPGLVKPSETLSLTCAVSGHSISHDHAWSWVRQPPGEGLEWIGFISYSGITNYNPSLQGRVTISRDNSKNTLYLQMNSLRAEDTAVYYCARSLARTTAMDYWGEGTLVTVSSASTKGPSVFPLAPSSKSTSGGTAALGCLVKDYFPEPVTVSWNSGALTSGVHTFPAVLQSSGLYSLSSVVTVPSSSLGTQTYICNVNHKPSNTKVDKKVEPKSCDKTHTCPPCPAPDLLGGDSVFLFPPKPKDTLMISRTPEVTCVVVDVSDEDGEVKFNWYVDGVEVHNAKTKPREEQDNSTYRVVSVLTVLHQDWLNGKEYKCKVSNKALPKPIEKTISKAKGQPREPQVYTLPPSRDELTKNQVSLTCLVKGFYPSDIAVEWESNGQPENNYKTTPPVLDSDGSFFLYSKLTVDKSRWQQGNVFSCSVMHEALHNHYTQESLSLSP
light: DIQMTQSPSSLSASVGDRVTITCRASQDISSYLNWYQQKPGKAPKLLIYYTSRLHSGVPSRFSGSGSGTDFTFTISSLQPEDIATYYCQQGNTLPYTFGQGTKVEIK
notes: as for B1
For B3, the relative binding activity was 109 % of control with FcγRIa, 122 % of control with FcγRIIa type H, 172 % of control with FcγRIIb and 118 % of control with FcγRIIIa type V.

B4: IL6R-BP198/IL6R-L (antibody, human IgG1)
heavy: QVQLQESGPGLVKPSETLSLTCAVSGHSISHDHAWSWVRQPPGEGLEWIGFISYSGITNYNPSLQGRVTISRDNSKNTLYLQMNSLRAEDTAVYYCARSLARTTAMDYWGEGTLVTVSSASTKGPSVFPLAPSSKSTSGGTAALGCLVKDYFPEPVTVSWNSGALTSGVHTFPAVLQSSGLYSLSSVVTVPSSSLGTQTYICNVNHKPSNTKVDKKVEPKSCDKTHTCPPCPAPDYLGGDSVFLFPPKPKDTLMISRTPEVTCVVVDVSDEDGEVKFNWYVDGVEVHNAKTKPREEQYNSTYRVVSVLTVLHQDWLNGKEYKCKVSNAALPKPIEKTISKAKGQPREPQVYTLPPSRDELTKNQVSLTCLVKGFYPSDIAVEWESNGQPENNYKTTPPVLDSDGSFFLYSKLTVDKSRWQQGNVFSCSVMHEALHNHYTQESLSLSP
light: DIQMTQSPSSLSASVGDRVTITCRASQDISSYLNWYQQKPGKAPKLLIYYTSRLHSGVPSRFSGSGSGTDFTFTISSLQPEDIATYYCQQGNTLPYTFGQGTKVEIK
notes: as for B1
Turning to B4, the relative binding activity with FcγRIa was 104 % of control; with FcγRIIa type H it was 188 % of control; with FcγRIIb, 164 % of control; with FcγRIIIa type V it was 157 % of control.

B5: IL6R-BP196/IL6R-L (antibody, human IgG1)
heavy: QVQLQESGPGLVKPSETLSLTCAVSGHSISHDHAWSWVRQPPGEGLEWIGFISYSGITNYNPSLQGRVTISRDNSKNTLYLQMNSLRAEDTAVYYCARSLARTTAMDYWGEGTLVTVSSASTKGPSVFPLAPSSKSTSGGTAALGCLVKDYFPEPVTVSWNSGALTSGVHTFPAVLQSSGLYSLSSVVTVPSSSLGTQTYICNVNHKPSNTKVDKKVEPKSCDKTHTCPPCPAPEYLGGDSVFLFPPKPKDTLMISRTPEVTCVVVDVSDEDGEVKFNWYVDGVEVHNAKTKPREEQYNSTYRVVSVLTVLHQDWLNGKEYKCKVSNAALPKPIEKTISKAKGQPREPQVYTLPPSRDELTKNQVSLTCLVKGFYPSDIAVEWESNGQPENNYKTTPPVLDSDGSFFLYSKLTVDKSRWQQGNVFSCSVMHEALHNHYTQESLSLSP
light: DIQMTQSPSSLSASVGDRVTITCRASQDISSYLNWYQQKPGKAPKLLIYYTSRLHSGVPSRFSGSGSGTDFTFTISSLQPEDIATYYCQQGNTLPYTFGQGTKVEIK
notes: as for B1
Turning to B5, the relative binding activity is 89 % of control with FcγRIa, 195 % of control in the assay with FcγRIIa type H, 157 % of control in the assay with FcγRIIb and 137 % of control with FcγRIIIa type V.

B6: IL6R-BP197/IL6R-L (antibody, human IgG1)
heavy: QVQLQESGPGLVKPSETLSLTCAVSGHSISHDHAWSWVRQPPGEGLEWIGFISYSGITNYNPSLQGRVTISRDNSKNTLYLQMNSLRAEDTAVYYCARSLARTTAMDYWGEGTLVTVSSASTKGPSVFPLAPSSKSTSGGTAALGCLVKDYFPEPVTVSWNSGALTSGVHTFPAVLQSSGLYSLSSVVTVPSSSLGTQTYICNVNHKPSNTKVDKKVEPKSCDKTHTCPPCPAPDYLGDDSVFLFPPKPKDTLMISRTPEVTCVVVDVSDEDGEVKFNWYVDGVEVHNAKTKPREEQDNSTYRVVSVLTVLHQDWLNGKEYKCKVSNDALPKPIEKTISKAKGQPREPQVYTLPPSRDELTKNQVSLTCLVKGFYPSDIAVEWESNGQPENNYKTTPPVLDSDGSFFLYSKLTVDKSRWQQGNVFSCSVMHEALHNHYTQESLSLSP
light: DIQMTQSPSSLSASVGDRVTITCRASQDISSYLNWYQQKPGKAPKLLIYYTSRLHSGVPSRFSGSGSGTDFTFTISSLQPEDIATYYCQQGNTLPYTFGQGTKVEIK
notes: as for B1
In the case of B6, the relative binding activity was 71 % of control in the assay with FcγRIa, 294 % of control with FcγRIIa type H, 179 % of control in the assay with FcγRIIb and 206 % of control with FcγRIIIa type V.

The record behind these values is patent US20200199241A1 (Chugai, published 2020).
